From patent US20230183713A1, “SITE-SPECIFIC RECOMBINASES FOR EFFICIENT AND SPECIFIC GENOME EDITING” (TECHNISCHE UNIVERSITÄt DRESDEN, published 2023)

T1: Cre recombinase monomer with Q311R mutation
T1 chain: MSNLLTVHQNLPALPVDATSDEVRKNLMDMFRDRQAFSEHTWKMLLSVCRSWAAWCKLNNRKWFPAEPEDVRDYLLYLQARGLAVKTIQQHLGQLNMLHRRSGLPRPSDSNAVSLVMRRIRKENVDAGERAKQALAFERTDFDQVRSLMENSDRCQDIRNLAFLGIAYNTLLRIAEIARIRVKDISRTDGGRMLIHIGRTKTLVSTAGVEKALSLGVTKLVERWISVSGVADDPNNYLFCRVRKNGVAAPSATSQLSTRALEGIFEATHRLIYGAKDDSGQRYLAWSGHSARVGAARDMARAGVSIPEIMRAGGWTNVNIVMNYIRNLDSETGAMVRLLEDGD

B1: Cre recombinase monomer with K201G mutation (protein)
chain: MSNLLTVHQNLPALPVDATSDEVRKNLMDMFRDRQAFSEHTWKMLLSVCRSWAAWCKLNNRKWFPAEPEDVRDYLLYLQARGLAVKTIQQHLGQLNMLHRRSGLPRPSDSNAVSLVMRRIRKENVDAGERAKQALAFERTDFDQVRSLMENSDRCQDIRNLAFLGIAYNTLLRIAEIARIRVKDISRTDGGRMLIHIGRTGTLVSTAGVEKALSLGVTKLVERWISVSGVADDPNNYLFCRVRKNGVAAPSATSQLSTRALEGIFEATHRLIYGAKDDSGQRYLAWSGHSARVGAARDMARAGVSIPEIMQAGGWTNVNIVMNYIRNLDSETGAMVRLLEDGD
B2: Cre recombinase monomer with K201T mutation (protein)
chain: MSNLLTVHQNLPALPVDATSDEVRKNLMDMFRDRQAFSEHTWKMLLSVCRSWAAWCKLNNRKWFPAEPEDVRDYLLYLQARGLAVKTIQQHLGQLNMLHRRSGLPRPSDSNAVSLVMRRIRKENVDAGERAKQALAFERTDFDQVRSLMENSDRCQDIRNLAFLGIAYNTLLRIAEIARIRVKDISRTDGGRMLIHIGRTTTLVSTAGVEKALSLGVTKLVERWISVSGVADDPNNYLFCRVRKNGVAAPSATSQLSTRALEGIFEATHRLIYGAKDDSGQRYLAWSGHSARVGAARDMARAGVSIPEIMQAGGWTNVNIVMNYIRNLDSETGAMVRLLEDGD
B3: Cre recombinase monomer with R292H mutation (protein)
chain: MSNLLTVHQNLPALPVDATSDEVRKNLMDMFRDRQAFSEHTWKMLLSVCRSWAAWCKLNNRKWFPAEPEDVRDYLLYLQARGLAVKTIQQHLGQLNMLHRRSGLPRPSDSNAVSLVMRRIRKENVDAGERAKQALAFERTDFDQVRSLMENSDRCQDIRNLAFLGIAYNTLLRIAEIARIRVKDISRTDGGRMLIHIGRTKTLVSTAGVEKALSLGVTKLVERWISVSGVADDPNNYLFCRVRKNGVAAPSATSQLSTRALEGIFEATHRLIYGAKDDSGQRYLAWSGHSAHVGAARDMARAGVSIPEIMQAGGWTNVNIVMNYIRNLDSETGAMVRLLEDGD
B4: Cre recombinase monomer with K201I mutation (protein)
chain: MSNLLTVHQNLPALPVDATSDEVRKNLMDMFRDRQAFSEHTWKMLLSVCRSWAAWCKLNNRKWFPAEPEDVRDYLLYLQARGLAVKTIQQHLGQLNMLHRRSGLPRPSDSNAVSLVMRRIRKENVDAGERAKQALAFERTDFDQVRSLMENSDRCQDIRNLAFLGIAYNTLLRIAEIARIRVKDISRTDGGRMLIHIGRTITLVSTAGVEKALSLGVTKLVERWISVSGVADDPNNYLFCRVRKNGVAAPSATSQLSTRALEGIFEATHRLIYGAKDDSGQRYLAWSGHSARVGAARDMARAGVSIPEIMQAGGWTNVNIVMNYIRNLDSETGAMVRLLEDGD
B5: Cre recombinase monomer with R292A mutation (protein)
chain: MSNLLTVHQNLPALPVDATSDEVRKNLMDMFRDRQAFSEHTWKMLLSVCRSWAAWCKLNNRKWFPAEPEDVRDYLLYLQARGLAVKTIQQHLGQLNMLHRRSGLPRPSDSNAVSLVMRRIRKENVDAGERAKQALAFERTDFDQVRSLMENSDRCQDIRNLAFLGIAYNTLLRIAEIARIRVKDISRTDGGRMLIHIGRTKTLVSTAGVEKALSLGVTKLVERWISVSGVADDPNNYLFCRVRKNGVAAPSATSQLSTRALEGIFEATHRLIYGAKDDSGQRYLAWSGHSAAVGAARDMARAGVSIPEIMQAGGWTNVNIVMNYIRNLDSETGAMVRLLEDGD
B6: Cre recombinase monomer with K201S mutation (protein)
chain: MSNLLTVHQNLPALPVDATSDEVRKNLMDMFRDRQAFSEHTWKMLLSVCRSWAAWCKLNNRKWFPAEPEDVRDYLLYLQARGLAVKTIQQHLGQLNMLHRRSGLPRPSDSNAVSLVMRRIRKENVDAGERAKQALAFERTDFDQVRSLMENSDRCQDIRNLAFLGIAYNTLLRIAEIARIRVKDISRTDGGRMLIHIGRTSTLVSTAGVEKALSLGVTKLVERWISVSGVADDPNNYLFCRVRKNGVAAPSATSQLSTRALEGIFEATHRLIYGAKDDSGQRYLAWSGHSARVGAARDMARAGVSIPEIMQAGGWTNVNIVMNYIRNLDSETGAMVRLLEDGD
B7: Cre recombinase monomer with R292C mutation (protein)
chain: MSNLLTVHQNLPALPVDATSDEVRKNLMDMFRDRQAFSEHTWKMLLSVCRSWAAWCKLNNRKWFPAEPEDVRDYLLYLQARGLAVKTIQQHLGQLNMLHRRSGLPRPSDSNAVSLVMRRIRKENVDAGERAKQALAFERTDFDQVRSLMENSDRCQDIRNLAFLGIAYNTLLRIAEIARIRVKDISRTDGGRMLIHIGRTKTLVSTAGVEKALSLGVTKLVERWISVSGVADDPNNYLFCRVRKNGVAAPSATSQLSTRALEGIFEATHRLIYGAKDDSGQRYLAWSGHSACVGAARDMARAGVSIPEIMQAGGWTNVNIVMNYIRNLDSETGAMVRLLEDGD
B8: Cre recombinase monomer with H289I mutation (protein)
chain: MSNLLTVHQNLPALPVDATSDEVRKNLMDMFRDRQAFSEHTWKMLLSVCRSWAAWCKLNNRKWFPAEPEDVRDYLLYLQARGLAVKTIQQHLGQLNMLHRRSGLPRPSDSNAVSLVMRRIRKENVDAGERAKQALAFERTDFDQVRSLMENSDRCQDIRNLAFLGIAYNTLLRIAEIARIRVKDISRTDGGRMLIHIGRTKTLVSTAGVEKALSLGVTKLVERWISVSGVADDPNNYLFCRVRKNGVAAPSATSQLSTRALEGIFEATHRLIYGAKDDSGQRYLAWSGISARVGAARDMARAGVSIPEIMQAGGWTNVNIVMNYIRNLDSETGAMVRLLEDGD
B9: Cre recombinase monomer with R292F mutation (protein)
chain: MSNLLTVHQNLPALPVDATSDEVRKNLMDMFRDRQAFSEHTWKMLLSVCRSWAAWCKLNNRKWFPAEPEDVRDYLLYLQARGLAVKTIQQHLGQLNMLHRRSGLPRPSDSNAVSLVMRRIRKENVDAGERAKQALAFERTDFDQVRSLMENSDRCQDIRNLAFLGIAYNTLLRIAEIARIRVKDISRTDGGRMLIHIGRTKTLVSTAGVEKALSLGVTKLVERWISVSGVADDPNNYLFCRVRKNGVAAPSATSQLSTRALEGIFEATHRLIYGAKDDSGQRYLAWSGHSAFVGAARDMARAGVSIPEIMQAGGWTNVNIVMNYIRNLDSETGAMVRLLEDGD
B10: Cre recombinase monomer with H289R mutation (protein)
chain: MSNLLTVHQNLPALPVDATSDEVRKNLMDMFRDRQAFSEHTWKMLLSVCRSWAAWCKLNNRKWFPAEPEDVRDYLLYLQARGLAVKTIQQHLGQLNMLHRRSGLPRPSDSNAVSLVMRRIRKENVDAGERAKQALAFERTDFDQVRSLMENSDRCQDIRNLAFLGIAYNTLLRIAEIARIRVKDISRTDGGRMLIHIGRTKTLVSTAGVEKALSLGVTKLVERWISVSGVADDPNNYLFCRVRKNGVAAPSATSQLSTRALEGIFEATHRLIYGAKDDSGQRYLAWSGRSARVGAARDMARAGVSIPEIMQAGGWTNVNIVMNYIRNLDSETGAMVRLLEDGD
B11: Cre recombinase monomer with R292G mutation (protein)
chain: MSNLLTVHQNLPALPVDATSDEVRKNLMDMFRDRQAFSEHTWKMLLSVCRSWAAWCKLNNRKWFPAEPEDVRDYLLYLQARGLAVKTIQQHLGQLNMLHRRSGLPRPSDSNAVSLVMRRIRKENVDAGERAKQALAFERTDFDQVRSLMENSDRCQDIRNLAFLGIAYNTLLRIAEIARIRVKDISRTDGGRMLIHIGRTKTLVSTAGVEKALSLGVTKLVERWISVSGVADDPNNYLFCRVRKNGVAAPSATSQLSTRALEGIFEATHRLIYGAKDDSGQRYLAWSGHSAGVGAARDMARAGVSIPEIMQAGGWTNVNIVMNYIRNLDSETGAMVRLLEDGD
B12: Cre recombinase monomer with K201R mutation (protein)
chain: MSNLLTVHQNLPALPVDATSDEVRKNLMDMFRDRQAFSEHTWKMLLSVCRSWAAWCKLNNRKWFPAEPEDVRDYLLYLQARGLAVKTIQQHLGQLNMLHRRSGLPRPSDSNAVSLVMRRIRKENVDAGERAKQALAFERTDFDQVRSLMENSDRCQDIRNLAFLGIAYNTLLRIAEIARIRVKDISRTDGGRMLIHIGRTRTLVSTAGVEKALSLGVTKLVERWISVSGVADDPNNYLFCRVRKNGVAAPSATSQLSTRALEGIFEATHRLIYGAKDDSGQRYLAWSGHSARVGAARDMARAGVSIPEIMQAGGWTNVNIVMNYIRNLDSETGAMVRLLEDGD
B13: Cre recombinase monomer with K201H mutation (protein)
chain: MSNLLTVHQNLPALPVDATSDEVRKNLMDMFRDRQAFSEHTWKMLLSVCRSWAAWCKLNNRKWFPAEPEDVRDYLLYLQARGLAVKTIQQHLGQLNMLHRRSGLPRPSDSNAVSLVMRRIRKENVDAGERAKQALAFERTDFDQVRSLMENSDRCQDIRNLAFLGIAYNTLLRIAEIARIRVKDISRTDGGRMLIHIGRTHTLVSTAGVEKALSLGVTKLVERWISVSGVADDPNNYLFCRVRKNGVAAPSATSQLSTRALEGIFEATHRLIYGAKDDSGQRYLAWSGHSARVGAARDMARAGVSIPEIMQAGGWTNVNIVMNYIRNLDSETGAMVRLLEDGD
B14: Cre recombinase monomer with R292I mutation (protein)
chain: MSNLLTVHQNLPALPVDATSDEVRKNLMDMFRDRQAFSEHTWKMLLSVCRSWAAWCKLNNRKWFPAEPEDVRDYLLYLQARGLAVKTIQQHLGQLNMLHRRSGLPRPSDSNAVSLVMRRIRKENVDAGERAKQALAFERTDFDQVRSLMENSDRCQDIRNLAFLGIAYNTLLRIAEIARIRVKDISRTDGGRMLIHIGRTKTLVSTAGVEKALSLGVTKLVERWISVSGVADDPNNYLFCRVRKNGVAAPSATSQLSTRALEGIFEATHRLIYGAKDDSGQRYLAWSGHSAIVGAARDMARAGVSIPEIMQAGGWTNVNIVMNYIRNLDSETGAMVRLLEDGD
B15: Cre recombinase monomer with H289D mutation (protein)
chain: MSNLLTVHQNLPALPVDATSDEVRKNLMDMFRDRQAFSEHTWKMLLSVCRSWAAWCKLNNRKWFPAEPEDVRDYLLYLQARGLAVKTIQQHLGQLNMLHRRSGLPRPSDSNAVSLVMRRIRKENVDAGERAKQALAFERTDFDQVRSLMENSDRCQDIRNLAFLGIAYNTLLRIAEIARIRVKDISRTDGGRMLIHIGRTKTLVSTAGVEKALSLGVTKLVERWISVSGVADDPNNYLFCRVRKNGVAAPSATSQLSTRALEGIFEATHRLIYGAKDDSGQRYLAWSGDSARVGAARDMARAGVSIPEIMQAGGWTNVNIVMNYIRNLDSETGAMVRLLEDGD

Biological target: T1, Cre recombinase monomer with Q311R …

First: B1
Second: B2
The “Median dimer activity (recombination on loxP)” value (shortened to “Median dimer activity”) of the first is lower: 90% for the first, 94% for the second.

Going from B3 to B4, the “Median dimer activity” value falls from 88% to 86%.

Going from B5 to B6, the “Median dimer activity” value falls from 96% to 95%.

Compared with B7, B8 is lower in “Median dimer activity” value: 93% for the first, 75% for the second.

First: B9
Second: B10
The “Median dimer activity” value of the first is lower: 42% for the first, 79% for the second.

Compared with B11, B12 is higher in “Median dimer activity” value: 97% for the first, 98% for the second.

Compared with B13, B14 is higher in “Median dimer activity” value: 94% for the first, 97% for the second.

In the case of B15, the “Median dimer activity” value is reported as 97%.
